assay: soluble on expression in E. coli; label from the status in PepcDB or PDB records

Sequence	soluble on expression in E. coli
MKTFPLQSLTLAEAQQKQFALVDTICRHFPGSEFLAGGDLGLTPSLNQPRITQRVEQVLADAFHAQAAALVQGAGTGAIRAGLAALLKPGQRLLVHDAPVYPTTRVIIEQMGLTLITADFNDLSALKQVVDEQQPDAALVQHTRQQPQDSYVLADVLATLRAAGVPALTDDNYAVMKVARIGCECGANVSTFSCFKLFGPEGVGAVVGDADVISRIRATLYSGGSQIQGSQALEVLRGLVFAPLIHAVKAGVSERLLALLNGGAVAEVKSAVIANAQSKVLIVEFHQLIAARVLEEAQKRGALPYPVGAESKYEIPPLFYRLSGTFRQANPQLEHCAIRINPNRSGEETVLRILRESIASI	not soluble
MKTFTVQFHREDDVEAMNVGKLSQEDFDKATEGGTRHLFDLDTNIGYFVFFDAEDNEGKVSYLMLQYEEDNEDPSACYSFELKDFYEFMALYLNDLEFAEEEEMAEDGEEEYGPIHHLAHLLYHIVEKGKTVEV	not soluble
MKTIHIYTNGRFEEKQSGIVREFPLVLHVNGREIATLISSPHDLRFLVAGFLRNQGFVERAEDFHMLAVCDDFGIANARIRGELPERLKPVLTSGCGTGVTFTLETPKIPPPLALPAITTDAVFRLMEELARRADNYRSHGGIHSAAVGDGEGNLLLFAEDIGRHNTLDRIAGEALFKGIDLAGTILVTSGRVSTEMAAKCARLGIALIASRTSATDMAVKMCDEAGIPLIGYVRGGKFTVYAHHERLAMAPPVGAIHELPLPASAQGRRIPGITGVILAGGQSRRMGSNKALLPYKGGRFIEAIHRQLAEIFDEVLLVTNNPEQYDFLPCRKVADIHPGMGALAGIHAGLHHAANPAAFMVACDMPYLNSDLIRHLATLADPGGVLIPESPAGLEPLHAVYGKGCLAAIETTLLSGERRIVSFFGRTNVNRVNAEQVALFDPDYATFSNINTPVDYYRLRDGERDELDAALGADRIAGLEHHHHHH	not soluble
MKTKIIGVLGLGIFGQTLAQELSNFEQDVIAIDSNPENVQAVAEVVTKAAIGDITDLAFLKHIGISDCDTVIIATGNSLESSVLAVMHCKKLGVPQVIAKARNLVYEEVLYEIGADLVISPERESGQNVAANLMRNKITDVFQIESDISVIEFKIPKSWVGKTVEQLNIRHKFDLNLIGIRKAKNKPVDTEVPINSPLEEGIILVAIANSDAFQRYDYLGYFNLEHHHHHH	soluble
MKTLEKRMKALDKRIMKFGKSLEGRLDARLIESALDYIHYSERFLAFEILCTYIEDFDVRLTEQESREISFINKEFEIESTSD	not soluble
MKTLFLQYPACSTCQKAKKWLIENNIEYTNRLIVDDNPTVEELKAWIPLSGLPVKKFFNTSGVVYKELKLSSKLPTMTEEEQIALLATNGKLVKRPLVVTERFVLVGFKPEEWEKL	not soluble
MKTMRKILEIDEERCNGCGLCVLDCAEGAIAIVDGKAKIVSDSFCDGLGACIGSCPQDALHIIEREAVPFDEEAAMEHVRSQGGTPEANHGHGHGAGTPHRHGQSAEHGGHGRIPGHGGCPGAAMRRFDSAESPAFAVAEGTVKGPGHWPLKIRLVPPTAPFLKGADVLVAADCAAAASPIFHSHFAAGKVVLIGCPKFDDTEAYAERLADILRVSGIASLTVLRMEVPCCRGLSAAAEKARVLSGTSLVLKEVIMTCAGGPAAPAPLSSL	soluble
MKTVGVVLSGCGVLDGAEIHESVLTMLALDRAGAEVLFFAPDKPQLHVINHITGEIVAEERNVLVESARIARGLITPLSAADPEVLDALIVPGGFGAAKNLCDFAIKGGECSVEPDLYKLIQLMHKSGKPIGLMCISPVMLPKLLGKPIRLTIGNDPDTIDAIEIMGGEHVICPADDVVIDLENKVVTTPAYMLAGSISEAAKGIDKLVTKVLDLTE	not soluble
MKTVPPVHRIALLFNGSKIYDRGIISGIGNYLSSTRVSWDLFLEEDFLCRLKGIERWQGDGIIADFDDPLIGEALAGIRLPVVAVGGSYQDERAYPKGIPYVATDNHALIKAAYEHLIEAGLTRFACFSLPEAQANRWAQEREKAFRHLLQRDGLHAEVYRGLGTSAPLWDSAVEQQITWLQSLPKPIGIIAVTDARARQLLQACLTAGIAVPEQVALIGIDNDPLTRTLTRVPLSSVIQGTETMGRTAARLLHQLLHGMPSSGTHILIPPDAVNVQASSLHQPLGDPYVMQALLFIRQYACQGIKTAQVAAYVGVSRSALESHFRRVRGCSVHDEILRFKLAAAAHGLENTDSAIADIARDCGFRSAQYLHTVFRREFGCTPREYLQGANAALQ	not soluble
MKTYEVGALLEAANQRDTKKVKEILQDTTYQVDEVDTEGNTPLNIAVHNNDIEIAKALIDRGADINLQNSISDSPYLYAGAQGRTEILAYMLKHATPDLNKHNRYGGNALIPAAEKGHIDNVKLLLEDGREDIDFQNDFGYTALIEAVGLREGNQLYQDIVKLLMENGADQSIKDNSGRTAMDYANQKGYTEISKILAQYN	soluble
MKVAIVHNSEEKSKQVTKQLTTLLEQNQIQIDNRQPELVISVGGDGTLLSAFHRFNHLLNEVSFLGVHTGHLGFYTDWRDYELKELVESLCIHREKSTSYPLLDVRIRFRDGKPDKHFLALNESTIKRGNRTMVGDVFIKDELFERFRGDGLSISTPTGSTAYNKSIGGAVLHPSINAFQLTEIASLNNRVFRTLGSPIVIAHTEWLEIKLQESDDYFVTVDQLDIYQENIASVCYRIADERIHFASYRHMHFWHRVKDAFIGEDLEHHHHHH	soluble
MKVEEILEKALELVIPDEEEVRKGREAEEELRRRLDELGVEYVFVGSYARNTWLKGSLEIDVFLLFPEEFSKEELRERGLEIGKAVLDSYEIRYAEHPYVHGVVKGVEVDVVPCYKLKEPKNIKSAVDRTPFHHKWLEGRIKGKENEVRLLKGFLKANGIYGAEYKVRGFSGYLCELLIVFYGSFLETVKNARRWTRRTVIDVAKGEVRKGEEFFVVDPVDEKRNVAANLSLDNLARFVHLCREFMEAPSLGFFKPKHPLEIEPERLRKIVEERGTAVFAVKFRKPDIVDDNLYPQLERASRKIFEFLERENFMPLRSAFKASEEFCYLLFECQIKEISRVFRRMGPQFEDERNVKKFLSRNRAFRPFIENGRWWAFEMRKFTTPEEGVRSYASTHWHTLGKNVGESIREYFEIISGEKLFKEPVTAELCEMMGVKD	soluble
MKVELVFIPSPGVGHIRATTALAKLLVASDNRLSVTLIVIPSRVSDDASSSVYTNSEDRLRYILLPARDQTTDLVSYIDSQKPQVRAVVSKVAGDVSTRSDSRLAGIVVDMFCTSMIDIADEFNLSAYIFYTSNASYLGLQFHVQSLYDEKELDVSEFKDTEMKFDVPTLTQPFPAKCLPSVMLNKKWFPYVLGRARSFRATKGILVNSVADMEPQALSFFSGGNGNTNIPPVYAVGPIMDLESSGDEEKRKEILHWLKEQPTKSVVFLCFGSMGGFSEEQAREIAVALERSGHRFLWSLRRASPVGNKSNPPPGEFTNLEEILPKGFLDRTVEIGKIISWAPQVDVLNSPAIGAFVTHCGWNSILESLWFGVPMAAWPIYAEQQFNAFHMVDELGLAAEVKKEYRRDFLVEEPEIVTADEIERGIKCAMEQDSKMRKRVMEMKDKLHVALVDGGSSNCALKKFVQDVVDNVP	soluble
MKVETCVYSGYKIHPGHGKRLVRTDGKVQIFLSGKALKGAKLRRNPRDIRWTVLYRIKNKKGTHGQEQVTRKKTKKSVQVVNRAVAGLSLDAILAKRNQTEDFRRQQREQAAKIAKDANKAVRAAKAAANKEKKASQPKTQQKTAKNVKTAAPRVGGKR	not soluble
MKVGVVGLQGDVSEHIEATKMAIEKLELPGEVIWLKRPEQLKGVDAVIIPGGESTTISRLMQRTGLFEPIKKMVEDGLPVMGTCAGLIMLAKEVLGATPEQKFLEVLDVKVNRNAYGRQVDSFEAPVKLAFDDEPFIGVFIRAPRIVELLSEKVKPLAWLEDRVVGVEQENIIGLEFHPELTNDTRIHEYFLRKVI	soluble
MKVIAVNGGPRKQWNTATLLHKALEGAQSAGAETDLFHLYDLNYKGCISCFGCKRKNSSRIGHCVLKDELTPLLEEVLKCDALLLGSPIYFGNVTGAMRSFLERLFFSLLSYNEGQRTVFPRKVASGFIYTMNVPEDFLPQLGYEAVFKANARSLELLNGPSEYLLATDTYQFDNYSNYEASRFNEQHKAQVRQERFPQDCRQAFDLGAR	not soluble

From the DeepSol protein solubility set
